Biological target: SARS-CoV-2 prefusion stabilised spike ectodomain trimer (SARS-CoV-2) (UniProt P0DTC2)
Assay: cryo-EM structure

SARS-CoV-2 prefusion stabilised spike ectodomain trimer (from UniProt P0DTC2 14-1200) (domain or fragment)
stoichiometry N: 3

Reference: article doi:10.1101/2020.09.30.318261
